The source of these data is patent US20160130329A1 (UNIVERSITY OF CHICAGO, published 2016).

Numbering of substitutions follows the chain as printed. Where no end group is shown, it is not given here. [ ]: non-standard residue; d: D form. Lys(Me3) = C[N+](C)(C)CCCC[C@H](N)C(=O)O

As a reminder, the Kd is the equilibrium constant for the complex coming apart. Read a low Kd as a tighter complex.

Assay [1] concerns the target T1, H3K4me3 peptide (also: biotinylated, site not given here).
T1 peptide: ART[Lys(Me3)]QTARKSTGGYCD
Description: phage ELISA [A]. A general note: In an ELISA, binding on a coated surface is turned into a signal by an enzyme label.

Assay [2] deals with T2, H3K27me3 peptide (trimethyl-lysine at K27 (histone H3 numbering); biotinylated through the GYCD tag).
T2 peptide: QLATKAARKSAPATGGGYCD
Kind of assay: phage ELISA [A].

Assay [3] concerns the target T3, H4K20me3 peptide (trimethyl-lysine at K20 (histone H4 numbering); biotinylated through the GYCD tag).
T3 peptide: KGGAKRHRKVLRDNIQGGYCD
Description: phage ELISA [A].

In assay [4] the target is T1, H3K4me3 peptide. Description: yeast display, flow cytometry [A]. For orientation: In flow cytometry, cells or beads pass a laser one at a time.
The target of assay [5] is T2, H3K27me3 peptide. Kind of assay: yeast display, flow cytometry [A].
Assay [6] addresses T3, H4K20me3 peptide. Kind of assay: yeast display, flow cytometry [A].
The target in assay [7] is T1, H3K4me3 peptide. Description: yeast display, flow cytometry [B].
The target of assay [8] is T2, H3K27me3 peptide. Description: yeast display, flow cytometry [B].
Assay [9] deals with T4, H3K36me3 peptide (K(me3) at H3 K36; K(biotin) near the C-terminus, as printed: SAPATGGVK-K(me3)-PHRYRPGG-K(biotin)-D).
T4 peptide: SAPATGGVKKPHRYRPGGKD
Kind of assay: yeast display, flow cytometry [B].

The target of assay [10] is T4, H3K36me3 peptide. Description: peptide IP assay (FIG. 8B).
Assay [11] has as its target T5, H3K56me3 peptide (K(me3) at H3 K56; K(biotin) near the C-terminus, as printed: LREIRRYQ-K(me3)-STELLIRGG-K(biotin)-D).
T5 peptide: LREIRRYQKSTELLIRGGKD
Description: peptide IP assay (FIG. 8B).

Assay [12] addresses T1, H3K4me3 peptide. Description: quantitative peptide IP assay.
For assay [13], the target named is T1, H3K4me3 peptide. Description: peptide IP assay (antibody on beads, flow cytometry).
Assay [14] deals with T1, H3K4me3 peptide. Kind of assay: quantitative peptide IP assay, biotinylated Fab on streptavidin beads, flow cytometry.
For assay [15], the target named is T6, cross-linked chromatin from HEK293T cells.
T6 construct: A protein-DNA complex
Description: cross-linked ChIP from HEK293T cells followed by qPCR.

Assay [16] concerns the target T1, H3K4me3 peptide. Description: peptide IP assay (antibody on beads, flow cytometry).
The target in assay [17] is T3, H4K20me3 peptide. Described as above.
For assay [18], the target named is T4, H3K36me3 peptide. The assay is described as above.
Assay [19] concerns the target T5, H3K56me3 peptide. The description is as above.
In assay [20] the target is T1, H3K4me3 peptide. Kind of assay: yeast display of the scFv, peptide titration, flow cytometry.
Assay [21] has as its target T1, H3K4me3 peptide. The description is as above.

B1: 9H2 (scFv)
scFv: EVQLVETGGGVVQPGRSLRLSCTASGFTFRDHWMSWVRQAPGKGLEWVADIDQEGRWGYYLDAVKGRFTISRDNAKSSLYLQMNSLGAEDTAVYYCARDFLVGFGWHFDLWGRGTLVTVSSSYVLTQPPSVSVAPGQTARITCGGTNIGDISVHWYQQRPGQAPLVVVYDDSDRPSGIPERFSGSNSGNTATLTISRVEAGDEADYYCQVWDDSINAYVFGTGTKVTVL
Regarding B1, the binding result with H3K4me3 peptide [1], with H3K27me3 peptide [2] and in the assay with H4K20me3 peptide [3] was “no binding (tested: 100 nM peptide)” throughout.

B2: 36H3 (scFv)
scFv: EVQLVETGGGVVQPGRSLRLSCTASGFTFRDYWMSWVRQAPGKGLEWVADLNKDGKYAYYLDAVKGRFTISRDNAKSSLYLQMNSLGAEDTAVYYCARDFVRGSGWHFDLWGRGTLVTVSSSYVLTQPPSVSVAPGQTARITCGGTNIGDISVHWYQQRPGQAPLVVVYDDSDRPSGIPERFSGSNSGNTATLTISRVEAGDEADYYCQVWDDSINAYVFGTGTKVTVL
Turning to B2, the binding result with H3K4me3 peptide [4], with H3K27me3 peptide [5] and in the assay with H4K20me3 peptide [6] was “no binding (tested: 500 nM)” throughout.

B3: 20H1 (scFv)
scFv: B1 scFv with H32N, D52N, E54N, W57Y, G58F, L61I, D99A, L101Q, V102R, F104R
As to B3, the binding result with H3K4me3 peptide [7], in the assay with H3K27me3 peptide [8] and with H3K36me3 peptide [9] was “no binding (tested: 500 nM)” each time.

B4: 304M3-A (Fab, V domains shown)
VH: EVQLVETGGGVVQPGRSLRLSCTASGFTFRDYWMSWVRQAPGKGLEWVADINQDGSALYYVDAVKGRFTISRDNAKSSLYLQMNSLGAEDTAVYYCARDLIYGFGWHFDLWGRGTLVTVSS
VL: not shown
notes: Produced and characterized in the same manner as 309M3-A: biotinylated Fab with a biotinylation acceptor peptide at the C-terminus of the heavy chain; also called recombinant anti-H3K4me3 antibody; 304M3-A antibody
As for B4, the binding result in the assay with H3K36me3 peptide [10] and with H3K56me3 peptide [11] was “no binding” throughout. Moreover, the “fold increase in affinity compared with the lead antibody (scFv 4-5)” value in the assay with H3K4me3 peptide [12] came to 360 fold. Also, the values for the Kd in the assay with H3K4me3 peptide [13] and in the assay with H3K4me3 peptide [14] were 20 nM and 16 nM, respectively.

B5: 309M3-A (Fab, V domains shown)
VH: B4 VH with Y32H, Q53G, G55S, S56I, A57L, L58E, L100F, I101H, Y102R, F104Y
VL: not shown
notes: also called recombinant anti-H3K9me3 antibody; 309M3-A antibody
For B5, the binding result with H3K27me3 peptide [2] was “no binding (tested: 100 nM peptide)”; in the assay with H3K4me3 peptide [16], “no binding (tested: 500 nM)”; with H4K20me3 peptide [17] it was “no binding (tested: 500 nM)”; in the assay with H3K36me3 peptide [18], “no binding (tested: 500 nM)”; with H3K56me3 peptide [19] it was “no binding (tested: 500 nM)”. In [15], the “ChIP enrichment relative to pAb-056-050 (lot A93-0042)” value was roughly 3 fold.

B6: scFv 4-5 (scFv)
scFv: EVQLVETGGGVVQPGRSLRLSCTASGFTFRDYWMSWVRQAPGKGLEWVADIKQDGSDKYYVDAVKGRFTISRDNAKSSLYLQMNSLGAEDTAVYYCARDFSRGSGWHFDLWGRGTLVTVSSGILGSGGGGSGGGGSGGGGSSYVLTQPPSVSVAPGQTARITCGGTNIGDISVHWYQQRPGQAPLVVVYDDSDRPSGIPERFSGSNSGNTATLTISRVEAGDEADYYCQVWDDSINAYVFGTGTKVTVL
notes: also called lead antibody; scFv 4-5 polypeptide
In the case of B6, the Kd in the assay with H3K4me3 peptide [20] and with H3K4me3 peptide [21] was 5.1 µM each time.
